Assay results published in patent US20220265772A1, “USES OF DAN FAMILY BMP ANTAGONISTS FOR INHIBITING OCULAR NEOVASCULARIZATION AND TREATING OCULAR CONDITIONS” (9636137 Canada Inc., priority 2019, published 2022).
Read-outs that look alike come from different tables or passages of the source.

What was measured:
[1] = system: HUVECs; test: VEGF-induced tube formation (sprouting assay) of HUVECs in 3D fibrin gels; assay type: cell-based, human; conditions: for VEGF-induced tube formation: HUVECs in fibrin gel, 25 ng/ml VEGF, DAND5 0, 15, 30 or 60 ng/ml
Protocol: Sprouting assays were performed as previously described (2). Briefly, HUVECs (250,000 cells/well in 6-well plates) were resuspended in 300 μl fibrinogen solution (2.5 mg/ml fibrinogen, Sigma-Aldrich) in EBM-2 (Lonza) supplemented with 2% FBS and 50 μg/ml aprotinin (Sigma-Aldrich), and plated on top of a pre-coated fibrin layer (400 μl fibrinogen solution clotted with 1 U thrombin (Sigma-Aldrich) for 20 min at 37° C.). The second layer of fibrin was clotted for 1 hr at 37° C. NHDF cells (250,000 cells/well), in EBM-2 supplemented with 2% FBS and 25 ng/ml VEGF, with or without DAND5 (0, 15, 30 or 60 ng/ml), were then plated on top of the fibrin layers. Cultures were incubated at 37° C., 5% CO2.
To test whether DAND5 affects sprouting angiogenesis, human umbilical vein endothelial cells (HUVECs) were cultured in 3D fibrin gels and tube formation was induced with VEGF as previously described (2).

[2] = system: retinal vascular development; assay type: in vivo, mouse
Protocol: Animals were anaesthetized with isofluorane. A 10 μL Hamilton syringe with a glass-pulled capillary was inserted with a 45° injection angle into the vitreous. When accessing the role of DAND5 developmentally, animals were injected at P1 (DAND5:100 ng; or PBS: 1 μl) and were euthanized at P5 to quantify vascular growth. The DAND5 used for the injection was a human recombinant DAND5/COCO biologically active fragment produced in E. coli and purified by SDS-PAGE (Arg23-Ala189 with an N-terminal Met, predicted 18.2 kDa monomer, R&D systems; 3047-CC-050). During the neovascularization phase of OIR, animals were injected at P12 (2 μL) before sacrifice at P17 for quantification of neovascularization. For adult mice and laser-induced neovascularization, intravitreal injections were performed under a surgical microscope. Mice were anaesthetized with isofluorane. Pupils were dilated using 1% tropicamide. A 33-gauge needle was inserted from the limbus with a 45° injection angle into the vitreous. The direction and location of the needle was monitored through the surgical microscope.
Ocular globes were initially fixed for 15 min in 4% paraformaldehyde (PFA). Retinas or choroids were collected after eyes dissection in PBS and blocked 1 h in PBS 3% BSA 0.1% Triton X-100™. Fixation was prolonged in 1% PFA overnight for choroid extraction or eyes sectioning. Prior to sectioning, eyes were maintained in sucrose gradients (10-30%), cryo-preserved in a matrix gel and sliced in 14 μm sections on a cryostat (Leica™ CM3050S). Staining with either FITC-labeled isolectin GS 1B4 (Life technologies corporation), rhodamine phalloidin (Cedarlane Laboratories), phospho-histone H3 (Abcam), Collagen IV (Abcam) or cleaved caspase-3 (Cell Signaling) antibodies were performed on whole and/or sectioned retinas/choroids. Retinas and choroids were then mounted in fluoromount aqueous medium (Sigma-Aldrich). Quantitative analysis of tufts, vaso-obliterated or vessel areas were performed using imageJ/Swift_NV™ as previously described (1). Neovascular tuft formation was quantified by comparing the number of pixels in the affected areas with the total number of pixels in the retina. The avascular area in the retina was measured in the same way using an anti-DAND5/COCO polyclonal goat IgG antibody (AF3047, R&D systems).
As DAND5 prevents VEGF-induced EC sprouting, proliferation and migration, we evaluated whether it could inhibit retinal vascular development. Newborn mouse pups (P1) received intravitreal injections of recombinant DAND5 (100 ng), and retinas were harvested after 4 days (P5) (FIG. 2A).
Blood vessels constrict in the course of vessel regression and EC retract, leaving behind empty BM sleeves.

[3] = system: Wnt-induced angiogenesis; test: Wnt1 and DAND5 co-injection during retinal vascular development (P1 to P5); assay type: in vivo, mouse; conditions: quantification of vascular branches in treated eyes
Protocol: FIG. 13 is a panel with pictures and graphs showing that Dand5 opposes Wnt1-mediated hypervascularization during retinal vascular development. FIG. 13A: Schematic representation of experimental design. C57B6 pups were injected at P1 with PBS, Dand5 (60 ng/mL), Wnt1, or Wnt1 and Dand5 together at various molar ratios (1N, 5N and 10N). FIG. 13B: Representative images of retinas treated with PBS, Dand5 (1N) or Wnt1 (1N). FIG. 13C: Representative images of retinas treated with PBS or with Wnt1 (5N and 10N) alone or in combination with Danb5. Dand5 Flatmounts retinas were stained with Isolectin B4 to visualize the vasculature. FIG. 13D: Quantification of vascular branches in treated eyes. […] To address the antagonism of DAND5 on Wnt-induced angiogenesis, retinas were injected with recombinant DAND5 (60 ng) with increasing concentrations of Wnt1 (0, 1, 5 or 10× molar ratio) at P1 and retinas were harvested at P5 (FIG. 13A).

[4] = system: LDHA; test: AMPLI-seq transcriptome analysis of HUVECs; assay type: cell-based, human; conditions: HUVECs treated for 6 and 16 h
Protocol: FIG. 7 is a panel with a schematic and graphs showing that DAND5 modifies the metabolic transcriptional program in cultured endothelial cells. HUVECs were treated for 6 and 16 h with either PBS or DAND5, before RNA extraction. RNA was reverse-transcribed and cDNA amplified using IonTorrent Ampliseq™ Transcriptome Human Gene Expression kit. FIG. 7A: Heat map of metabolism-related genes.
We performed AMPLI-seq analysis of HUVECs exposed or not to recombinant DAND5. […] Lactate de-hydrogenase A (LDHA) regulates lactate metabolism during anaerobic respiration.

[5] = system: mitochondria; test: Immunofluorescence localization of DAND5 in treated HUVECs; assay type: cell-based, human; conditions: HUVECs exposed for 1 h
Protocol: FIG. 9: HUVECs were plated to confluence and exposed or not to Dand5 for 1 hour. Dand5 was not detected before treatment in HUVECs (not shown).
To test where DAND5 is localizes in treated HUVECs, we exposed HUVECs to human recombinant DAND5 for 1 h and performed immune-fluorescence using human anti-mitochondrial antigen antibody and a human anti-DAND5 antibody.

[6] = system: Wnt signaling; conditions: previous study (5); cited from earlier work
[7] = 100 ng at P1, P5, compared with PBS-injected eyes

B1: DAND5: human recombinant DAND5/COCO biologically active fragment produced in E. coli, predicted 18.2 kDa monomer, R&D systems 3047-CC-050 (protein)
chain: MRPEPQSPRPQSWAAANQTWALGPGALPPLVPASALGSWKAFLGLQKARQLGMGRLQRGQDEVAAVTLPLNPQEVIQGMCKAVPFVQVFSRPGCSAIRLRNHLCFGHCSSLYIPGSDPTPLVLCNSCMPARKRWAPVVLWCLTGSSASRRRVKISTMLIEGCHCSPKA
VEGF-induced tube formation [1]: efficiently suppressed VEGF-induced tube formation in a dose-dependent manner
VEGF-induced tube formation ([1]; listed as Dand5): inhibited tube formation in a dose dependent manner
vascular tube area ([1]; quantification of endothelial tubes, increasing concentrations of DAND5): significant reduction in vascular tube area with increasing concentrations
number of vascular branch points ([2]; 100 ng at P1, P5): reduced number of vascular branch points
microvessel density (ratio of vessel area to vascularized area) [2, 7]: pronounced reduction
vessel area (area covered by vessels) [2, 7]: pronounced reduction of vessel area
EC proliferation in retinal vasculature (pH3) ([2]; P1 injection, P5): reduced EC proliferation
empty type IV collagen (ColIV) BM sleeves ([2]; P1 injection, P5): significantly higher numbers of empty type IV collagen (ColIV) BM sleeves
inhibition of retinal neovascularization compared with VEGF inhibitor (mouse Flt1 Fc) ([2]; P1 injection, P5): significantly more pronounced than that of a VEGF inhibitor (mouse Flt1 Fc)
empty type IV collagen (ColIV) BM sleeves ([2]; P1 injection, P5, listed as Dand5): increased
blood vessel development ([2]; intravitreal 100 ng at P1, retinas at P5): dramatic inhibition of blood vessel development
apoptosis in retinal vasculature (CC3) ([2]; mouse, in vivo): no change in apoptosis
necroptosis in retinal vasculature (Rip3) ([2]; mouse, in vivo): no change in apoptosis (FIG. 11D, E) or necroptosis
photoreceptor morphology or apoptosis ([2]; mouse, in vivo): did not affect
retinal pericyte coverage ([2]; mouse, in vivo): did not affect retinal pericyte coverage
mutual antagonism on vascular branches [3]: mutually antagonist activities
LDHA expression [4]: down-regulation of LDHA
co-localization with mitochondria [5]: robust co-localization of DAND5 with mitochondria
co-localization with mitochondria ([5]; listed as Dand5): co-localizes with mitochondria
Wnt signaling in photoreceptors [6]: potent inhibitor of Wnt signaling in photoreceptors
